Reference: the supplement of paper PMC10065799, “High-throughput profiling of sequence recognition by tyrosine kinases and SH2 domains using bacterial peptide display” (eLife, 2023)

Key:
c-Src SH2 = assay: SH2 binding enrichment of the phosphorylated peptide, bacterial display (enrichment ratio); higher = better substrate or ligand; peptides without Tyr show the background
SHP2-C SH2 = assay: as above
Grb2 SH2 = Grb2 SH2 (UniProt P62993); assay: as above
Hck = Hck (UniProt P08631); assay: phosphorylation enrichment, bacterial display (enrichment ratio); higher = better substrate or ligand; peptides without Tyr show the background
Sequence of Hck (P08631 whole entry, looked up): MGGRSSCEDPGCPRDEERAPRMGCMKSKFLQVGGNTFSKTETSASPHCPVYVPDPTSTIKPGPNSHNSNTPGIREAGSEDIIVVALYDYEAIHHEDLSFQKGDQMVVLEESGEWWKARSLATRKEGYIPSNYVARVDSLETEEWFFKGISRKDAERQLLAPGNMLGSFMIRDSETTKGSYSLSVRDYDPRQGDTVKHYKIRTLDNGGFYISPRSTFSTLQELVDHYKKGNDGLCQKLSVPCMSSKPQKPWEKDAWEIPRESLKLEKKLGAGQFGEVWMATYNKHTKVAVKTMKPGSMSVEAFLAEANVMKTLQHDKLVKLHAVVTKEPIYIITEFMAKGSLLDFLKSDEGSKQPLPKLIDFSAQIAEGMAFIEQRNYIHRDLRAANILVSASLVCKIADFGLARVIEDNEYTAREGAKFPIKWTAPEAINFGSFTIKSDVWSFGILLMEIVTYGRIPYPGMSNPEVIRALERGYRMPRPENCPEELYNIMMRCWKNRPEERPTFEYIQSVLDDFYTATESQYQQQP

Fer (mouse) = assay: as above
EPHB1 = EPHB1 (UniProt P54762); assay: as above
Sequence of EPHB1 (P54762 whole entry, looked up): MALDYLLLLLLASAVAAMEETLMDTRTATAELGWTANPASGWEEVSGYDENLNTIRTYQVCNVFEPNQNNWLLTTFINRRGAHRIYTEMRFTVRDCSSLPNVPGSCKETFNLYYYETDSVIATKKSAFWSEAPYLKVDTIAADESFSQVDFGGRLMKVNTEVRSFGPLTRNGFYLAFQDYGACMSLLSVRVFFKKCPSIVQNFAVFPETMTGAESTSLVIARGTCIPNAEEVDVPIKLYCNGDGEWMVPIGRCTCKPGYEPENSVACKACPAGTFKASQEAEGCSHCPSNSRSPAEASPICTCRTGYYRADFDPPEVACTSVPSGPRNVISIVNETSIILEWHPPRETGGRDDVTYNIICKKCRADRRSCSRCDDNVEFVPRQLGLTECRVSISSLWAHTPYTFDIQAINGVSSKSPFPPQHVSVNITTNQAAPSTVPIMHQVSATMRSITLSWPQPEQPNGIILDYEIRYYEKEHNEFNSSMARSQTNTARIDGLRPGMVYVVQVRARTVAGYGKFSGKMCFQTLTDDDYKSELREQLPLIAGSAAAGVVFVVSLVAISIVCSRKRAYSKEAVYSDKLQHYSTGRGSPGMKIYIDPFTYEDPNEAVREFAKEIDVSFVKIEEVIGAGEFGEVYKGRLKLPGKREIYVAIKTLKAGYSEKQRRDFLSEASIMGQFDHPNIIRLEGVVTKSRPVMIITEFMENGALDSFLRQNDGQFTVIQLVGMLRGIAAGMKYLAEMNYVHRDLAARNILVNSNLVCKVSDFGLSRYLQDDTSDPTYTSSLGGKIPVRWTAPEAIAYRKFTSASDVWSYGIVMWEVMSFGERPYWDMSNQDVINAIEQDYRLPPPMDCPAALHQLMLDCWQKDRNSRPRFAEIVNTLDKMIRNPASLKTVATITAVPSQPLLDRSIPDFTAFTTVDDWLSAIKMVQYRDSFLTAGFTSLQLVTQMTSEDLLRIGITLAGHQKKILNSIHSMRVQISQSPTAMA

c-Src = assay: as above
FGFR1 = FGFR1 (UniProt P11362); assay: as above
Sequence of FGFR1 (P11362 whole entry, looked up): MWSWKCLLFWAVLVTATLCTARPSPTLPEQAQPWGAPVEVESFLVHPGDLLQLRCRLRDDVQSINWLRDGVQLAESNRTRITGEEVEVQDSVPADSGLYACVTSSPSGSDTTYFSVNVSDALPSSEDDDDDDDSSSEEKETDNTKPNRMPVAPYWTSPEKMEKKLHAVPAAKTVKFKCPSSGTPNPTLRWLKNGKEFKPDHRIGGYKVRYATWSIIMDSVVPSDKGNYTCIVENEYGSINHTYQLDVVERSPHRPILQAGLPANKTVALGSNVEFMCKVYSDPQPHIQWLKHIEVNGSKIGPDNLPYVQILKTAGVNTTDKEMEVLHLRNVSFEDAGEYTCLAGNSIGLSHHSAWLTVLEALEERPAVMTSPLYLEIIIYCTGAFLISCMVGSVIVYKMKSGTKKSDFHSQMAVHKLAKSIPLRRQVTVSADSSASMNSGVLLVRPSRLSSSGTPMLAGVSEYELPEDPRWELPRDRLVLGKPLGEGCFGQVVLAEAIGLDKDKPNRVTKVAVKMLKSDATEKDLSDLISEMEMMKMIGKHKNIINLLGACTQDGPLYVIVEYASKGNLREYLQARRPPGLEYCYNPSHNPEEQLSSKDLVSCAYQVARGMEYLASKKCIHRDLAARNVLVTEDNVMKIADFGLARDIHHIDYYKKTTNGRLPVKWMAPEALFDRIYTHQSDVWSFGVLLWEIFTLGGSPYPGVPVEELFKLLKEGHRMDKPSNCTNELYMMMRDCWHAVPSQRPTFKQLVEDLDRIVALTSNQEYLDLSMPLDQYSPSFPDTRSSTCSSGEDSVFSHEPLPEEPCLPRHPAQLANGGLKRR

Fyn = Fyn (UniProt P06241); assay: as above
EPHB2 = EPHB2 (UniProt P29323); assay: as above
AncSZ = assay: as above
MERTK = MERTK (UniProt Q12866); assay: as above
Fes = Fes (UniProt P07332); assay: as above
Sequence of Fes (P07332 whole entry, looked up): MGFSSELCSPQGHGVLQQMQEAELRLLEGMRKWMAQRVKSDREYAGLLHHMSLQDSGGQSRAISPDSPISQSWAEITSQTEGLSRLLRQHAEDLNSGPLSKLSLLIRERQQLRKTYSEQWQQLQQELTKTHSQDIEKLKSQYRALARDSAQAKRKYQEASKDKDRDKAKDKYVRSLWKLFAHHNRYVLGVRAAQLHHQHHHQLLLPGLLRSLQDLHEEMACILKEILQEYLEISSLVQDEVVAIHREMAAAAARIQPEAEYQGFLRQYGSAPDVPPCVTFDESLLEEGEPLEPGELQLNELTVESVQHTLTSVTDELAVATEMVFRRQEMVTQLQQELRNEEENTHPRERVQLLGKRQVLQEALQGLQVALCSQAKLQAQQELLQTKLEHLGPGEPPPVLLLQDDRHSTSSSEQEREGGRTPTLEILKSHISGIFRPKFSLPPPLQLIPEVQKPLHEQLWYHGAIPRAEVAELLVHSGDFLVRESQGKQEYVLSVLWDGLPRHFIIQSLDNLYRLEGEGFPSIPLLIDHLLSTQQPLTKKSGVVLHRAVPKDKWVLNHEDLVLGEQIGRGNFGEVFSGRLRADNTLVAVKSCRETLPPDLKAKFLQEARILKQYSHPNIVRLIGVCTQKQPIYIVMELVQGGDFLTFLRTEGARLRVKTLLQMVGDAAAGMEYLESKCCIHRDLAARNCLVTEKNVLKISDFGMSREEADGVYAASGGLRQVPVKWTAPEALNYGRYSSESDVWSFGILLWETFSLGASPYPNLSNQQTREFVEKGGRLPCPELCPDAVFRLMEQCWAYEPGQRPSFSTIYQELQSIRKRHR

Jak2 = Jak2 (UniProt O60674); assay: as above
Sequence of Jak2 (O60674 whole entry, looked up): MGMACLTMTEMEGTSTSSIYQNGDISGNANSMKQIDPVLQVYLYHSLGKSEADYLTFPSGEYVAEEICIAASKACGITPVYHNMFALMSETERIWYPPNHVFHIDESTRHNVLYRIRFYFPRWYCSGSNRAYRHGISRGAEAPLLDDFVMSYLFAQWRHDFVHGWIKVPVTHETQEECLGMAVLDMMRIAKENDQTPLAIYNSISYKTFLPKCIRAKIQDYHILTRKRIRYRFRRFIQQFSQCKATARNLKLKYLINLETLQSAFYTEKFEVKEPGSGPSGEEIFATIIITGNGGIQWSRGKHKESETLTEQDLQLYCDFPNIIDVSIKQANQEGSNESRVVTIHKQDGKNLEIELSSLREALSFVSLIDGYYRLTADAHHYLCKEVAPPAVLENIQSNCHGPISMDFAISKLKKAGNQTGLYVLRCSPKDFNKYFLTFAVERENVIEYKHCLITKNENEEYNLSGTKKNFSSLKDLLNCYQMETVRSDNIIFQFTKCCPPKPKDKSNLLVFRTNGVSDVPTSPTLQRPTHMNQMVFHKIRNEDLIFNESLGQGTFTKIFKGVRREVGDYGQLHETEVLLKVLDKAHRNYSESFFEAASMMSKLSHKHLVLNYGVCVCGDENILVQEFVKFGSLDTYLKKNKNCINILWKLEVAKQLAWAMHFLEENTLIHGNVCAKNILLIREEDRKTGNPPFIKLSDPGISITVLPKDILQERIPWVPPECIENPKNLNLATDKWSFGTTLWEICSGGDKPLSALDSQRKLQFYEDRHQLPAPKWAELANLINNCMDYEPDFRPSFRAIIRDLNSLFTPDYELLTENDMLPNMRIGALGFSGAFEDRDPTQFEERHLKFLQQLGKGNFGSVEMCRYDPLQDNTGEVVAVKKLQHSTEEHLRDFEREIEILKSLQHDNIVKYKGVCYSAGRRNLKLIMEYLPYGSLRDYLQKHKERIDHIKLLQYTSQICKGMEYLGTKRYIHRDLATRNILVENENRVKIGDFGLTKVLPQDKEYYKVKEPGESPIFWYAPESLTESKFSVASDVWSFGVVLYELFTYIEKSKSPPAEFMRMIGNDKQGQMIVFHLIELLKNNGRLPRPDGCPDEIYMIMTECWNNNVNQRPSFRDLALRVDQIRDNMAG

FGFR3 = FGFR3 (UniProt P22607); assay: as above
Sequence of FGFR3 (P22607 whole entry, looked up): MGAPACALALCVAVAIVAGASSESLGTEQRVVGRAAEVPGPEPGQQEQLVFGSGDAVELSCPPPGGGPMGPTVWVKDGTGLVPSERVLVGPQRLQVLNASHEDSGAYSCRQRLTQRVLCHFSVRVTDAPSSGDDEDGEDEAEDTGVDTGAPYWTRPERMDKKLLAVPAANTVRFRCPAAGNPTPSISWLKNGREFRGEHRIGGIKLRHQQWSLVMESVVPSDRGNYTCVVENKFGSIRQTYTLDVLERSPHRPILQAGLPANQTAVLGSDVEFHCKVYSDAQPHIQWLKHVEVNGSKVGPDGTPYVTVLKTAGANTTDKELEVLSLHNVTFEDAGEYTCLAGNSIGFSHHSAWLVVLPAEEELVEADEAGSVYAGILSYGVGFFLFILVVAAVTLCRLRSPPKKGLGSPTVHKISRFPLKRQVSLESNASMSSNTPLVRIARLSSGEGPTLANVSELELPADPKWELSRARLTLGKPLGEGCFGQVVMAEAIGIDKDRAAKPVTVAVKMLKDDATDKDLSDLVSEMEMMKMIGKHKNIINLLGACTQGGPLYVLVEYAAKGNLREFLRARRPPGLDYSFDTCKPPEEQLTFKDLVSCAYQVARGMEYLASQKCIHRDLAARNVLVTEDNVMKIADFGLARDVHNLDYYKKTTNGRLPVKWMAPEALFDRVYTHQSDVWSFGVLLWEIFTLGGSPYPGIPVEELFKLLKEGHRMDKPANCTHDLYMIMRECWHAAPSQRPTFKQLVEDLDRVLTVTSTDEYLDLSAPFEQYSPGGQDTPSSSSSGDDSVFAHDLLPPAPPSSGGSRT

c-Abl (mouse) = assay: as above
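For SH2 binding enrichment of the phosphorylated peptide, bacterial display in this document: peptide library displayed on the E. coli surface as eCPX fusions, selected cells deep-sequenced, score is each peptide's frequency after selection divided by its frequency in the input.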
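For phosphorylation enrichment, bacterial display in this document: 11-residue human phosphosite peptides and single-mutation variants displayed on the E. coli surface, counted by deep sequencing, each peptide's frequency after selection divided by its frequency in the unselected input library; frequency after pTyr selection over input frequency; kinase dosed for 20-30% of maximal phosphorylation in three min.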

## QRDSSYFWEIE [RAF1_Y340_YF]
c-Src SH2
  SH2 binding enrichment: 0.98
SHP2-C SH2
  SH2 binding enrichment: 0.917
Grb2 SH2
  SH2 binding enrichment: 0.936
Hck
  phosphorylation enrichment: 0.934
Fer (mouse)
  phosphorylation enrichment: 0.813
EPHB1
  phosphorylation enrichment: 0.776
c-Src
  phosphorylation enrichment: 0.712
FGFR1
  phosphorylation enrichment: 1.04
Fyn
  phosphorylation enrichment: 0.966
EPHB2
  phosphorylation enrichment: 0.968
AncSZ
  phosphorylation enrichment: 2.48
MERTK
  phosphorylation enrichment: 0.774
Fes
  phosphorylation enrichment: 1.92
Jak2
  phosphorylation enrichment: 3.31
FGFR3
  phosphorylation enrichment: 1.25
c-Abl (mouse)
  phosphorylation enrichment: 0.989

## QTENKYDSVSG [EIF2AK3_Y565]
c-Src SH2
  SH2 binding enrichment: 7.1
SHP2-C SH2
  SH2 binding enrichment: 0.724
Grb2 SH2
  SH2 binding enrichment: 0.839
Hck
  phosphorylation enrichment: 0.783
Fer (mouse)
  phosphorylation enrichment: 0.384
EPHB1
  phosphorylation enrichment: 0.407
c-Src
  phosphorylation enrichment: 0.467
FGFR1
  phosphorylation enrichment: 0.912
Fyn
  phosphorylation enrichment: 0.604
EPHB2
  phosphorylation enrichment: 0.561
AncSZ
  phosphorylation enrichment: 0.865
MERTK
  phosphorylation enrichment: 0.615
Fes
  phosphorylation enrichment: 1.13
Jak2
  phosphorylation enrichment: 1.98
FGFR3
  phosphorylation enrichment: 0.64
c-Abl (mouse)
  phosphorylation enrichment: 0.56

## QYQLKYSETPF [SIX6OS1_Y129]
c-Src SH2
  SH2 binding enrichment: 0.607
SHP2-C SH2
  SH2 binding enrichment: 0.598
Grb2 SH2
  SH2 binding enrichment: 0.868
Hck
  phosphorylation enrichment: 0.722
Fer (mouse)
  phosphorylation enrichment: 0.43
EPHB1
  phosphorylation enrichment: 0.743
c-Src
  phosphorylation enrichment: 0.519
FGFR1
  phosphorylation enrichment: 0.598
Fyn
  phosphorylation enrichment: 0.591
EPHB2
  phosphorylation enrichment: 0.907
AncSZ
  phosphorylation enrichment: 1
MERTK
  phosphorylation enrichment: 0.838
Fes
  phosphorylation enrichment: 1.1
Jak2
  phosphorylation enrichment: 0.7
FGFR3
  phosphorylation enrichment: 0.769
c-Abl (mouse)
  phosphorylation enrichment: 0.808

## RAFRHYLLKQK [SCN2A_Y1919_R1918H_YF]
c-Src SH2
  SH2 binding enrichment: 0.468
SHP2-C SH2
  SH2 binding enrichment: 0.439
Grb2 SH2
  SH2 binding enrichment: 0.939
Hck
  phosphorylation enrichment: 1.28
Fer (mouse)
  phosphorylation enrichment: 1.49
EPHB1
  phosphorylation enrichment: 0.793
c-Src
  phosphorylation enrichment: 0.907
FGFR1
  phosphorylation enrichment: 0.955
Fyn
  phosphorylation enrichment: 1.16
EPHB2
  phosphorylation enrichment: 1.67
AncSZ
  phosphorylation enrichment: 1.16
MERTK
  phosphorylation enrichment: 0.97
Fes
  phosphorylation enrichment: 1.59
Jak2
  phosphorylation enrichment: 0.912
FGFR3
  phosphorylation enrichment: 1.68
c-Abl (mouse)
  phosphorylation enrichment: 1.48

## RAIGHYSATSK [FAM120A_Y328_Y327H]
c-Src SH2
  SH2 binding enrichment: 0.619
SHP2-C SH2
  SH2 binding enrichment: 0.81
Grb2 SH2
  SH2 binding enrichment: 0.702
Hck
  phosphorylation enrichment: 0.942
Fer (mouse)
  phosphorylation enrichment: 0.542
EPHB1
  phosphorylation enrichment: 0.684
c-Src
  phosphorylation enrichment: 0.665
FGFR1
  phosphorylation enrichment: 0.576
Fyn
  phosphorylation enrichment: 0.522
EPHB2
  phosphorylation enrichment: 0.819
AncSZ
  phosphorylation enrichment: 0.964
MERTK
  phosphorylation enrichment: 0.757
Fes
  phosphorylation enrichment: 0.97
Jak2
  phosphorylation enrichment: 0.665
FGFR3
  phosphorylation enrichment: 0.892
c-Abl (mouse)
  phosphorylation enrichment: 0.777

## RAILDYIASKF [GSTA3_Y74_N73D_YF]
c-Src SH2
  SH2 binding enrichment: 0.689
SHP2-C SH2
  SH2 binding enrichment: 1.06
Grb2 SH2
  SH2 binding enrichment: 1.08
Hck
  phosphorylation enrichment: 0.395
Fer (mouse)
  phosphorylation enrichment: 0.542
EPHB1
  phosphorylation enrichment: 0.479
c-Src
  phosphorylation enrichment: 0.358
FGFR1
  phosphorylation enrichment: 0.567
Fyn
  phosphorylation enrichment: 0.433
EPHB2
  phosphorylation enrichment: 0.445
AncSZ
  phosphorylation enrichment: 0.674
MERTK
  phosphorylation enrichment: 0.375
Fes
  phosphorylation enrichment: 1.02
Jak2
  phosphorylation enrichment: 0.755
FGFR3
  phosphorylation enrichment: 0.79
c-Abl (mouse)
  phosphorylation enrichment: 0.603

## RAYRRYLLKQK [SCN2A_Y1919]
c-Src SH2
  SH2 binding enrichment: 0.514
SHP2-C SH2
  SH2 binding enrichment: 0.573
Grb2 SH2
  SH2 binding enrichment: 0.61
Hck
  phosphorylation enrichment: 0.51
Fer (mouse)
  phosphorylation enrichment: 0.415
EPHB1
  phosphorylation enrichment: 0.353
c-Src
  phosphorylation enrichment: 0.446
FGFR1
  phosphorylation enrichment: 0.489
Fyn
  phosphorylation enrichment: 0.559
EPHB2
  phosphorylation enrichment: 0.468
AncSZ
  phosphorylation enrichment: 0.729
MERTK
  phosphorylation enrichment: 0.387
Fes
  phosphorylation enrichment: 0.491
Jak2
  phosphorylation enrichment: 0.486
FGFR3
  phosphorylation enrichment: 0.495
c-Abl (mouse)
  phosphorylation enrichment: 0.42

## RCNHPYLINGA [CHD7_Y1256_C1251R]
c-Src SH2
  SH2 binding enrichment: 0.732
SHP2-C SH2
  SH2 binding enrichment: 0.693
Grb2 SH2
  SH2 binding enrichment: 0.931
Hck
  phosphorylation enrichment: 0.506
Fer (mouse)
  phosphorylation enrichment: 0.505
EPHB1
  phosphorylation enrichment: 0.249
c-Src
  phosphorylation enrichment: 0.481
FGFR1
  phosphorylation enrichment: 0.464
Fyn
  phosphorylation enrichment: 0.401
EPHB2
  phosphorylation enrichment: 0.518
AncSZ
  phosphorylation enrichment: 0.664
MERTK
  phosphorylation enrichment: 0.429
Fes
  phosphorylation enrichment: 0.68
Jak2
  phosphorylation enrichment: 0.646
FGFR3
  phosphorylation enrichment: 0.569
c-Abl (mouse)
  phosphorylation enrichment: 0.578

## RDHYGYRQSVT [CD55_Y245]
c-Src SH2
  SH2 binding enrichment: 0.484
SHP2-C SH2
  SH2 binding enrichment: 0.775
Grb2 SH2
  SH2 binding enrichment: 0.98
Hck
  phosphorylation enrichment: 0.806
Fer (mouse)
  phosphorylation enrichment: 0.748
EPHB1
  phosphorylation enrichment: 0.883
c-Src
  phosphorylation enrichment: 0.822
FGFR1
  phosphorylation enrichment: 0.747
Fyn
  phosphorylation enrichment: 0.866
EPHB2
  phosphorylation enrichment: 0.472
AncSZ
  phosphorylation enrichment: 1.22
MERTK
  phosphorylation enrichment: 0.774
Fes
  phosphorylation enrichment: 0.794
Jak2
  phosphorylation enrichment: 0.455
FGFR3
  phosphorylation enrichment: 0.339
c-Abl (mouse)
  phosphorylation enrichment: 0.794

## REIHDYIKHLG [UNC13C_Y308_D304E]
c-Src SH2
  SH2 binding enrichment: 0.512
SHP2-C SH2
  SH2 binding enrichment: 0.475
Grb2 SH2
  SH2 binding enrichment: 0.788
Hck
  phosphorylation enrichment: 0.511
Fer (mouse)
  phosphorylation enrichment: 0.651
EPHB1
  phosphorylation enrichment: 0.699
c-Src
  phosphorylation enrichment: 1.02
FGFR1
  phosphorylation enrichment: 0.371
Fyn
  phosphorylation enrichment: 0.821
EPHB2
  phosphorylation enrichment: 0.663
AncSZ
  phosphorylation enrichment: 0.631
MERTK
  phosphorylation enrichment: 0.723
Fes
  phosphorylation enrichment: 1.26
Jak2
  phosphorylation enrichment: 0.843
FGFR3
  phosphorylation enrichment: 0.741
c-Abl (mouse)
  phosphorylation enrichment: 0.794

## RELGEYPLAEF [ALDH1A3_Y492_A493P_YF]
c-Src SH2
  SH2 binding enrichment: 2.13
SHP2-C SH2
  SH2 binding enrichment: 0.617
Grb2 SH2
  SH2 binding enrichment: 0.763
Hck
  phosphorylation enrichment: 0.536
Fer (mouse)
  phosphorylation enrichment: 0.484
EPHB1
  phosphorylation enrichment: 0.511
c-Src
  phosphorylation enrichment: 0.582
FGFR1
  phosphorylation enrichment: 0.709
Fyn
  phosphorylation enrichment: 0.636
EPHB2
  phosphorylation enrichment: 0.645
AncSZ
  phosphorylation enrichment: 1.18
MERTK
  phosphorylation enrichment: 0.614
Fes
  phosphorylation enrichment: 1.14
Jak2
  phosphorylation enrichment: 1.41
FGFR3
  phosphorylation enrichment: 0.742
c-Abl (mouse)
  phosphorylation enrichment: 0.753

## REQREYLEQLN [CCDC88B_Y1277_D1279E]
c-Src SH2
  SH2 binding enrichment: 0.52
SHP2-C SH2
  SH2 binding enrichment: 0.73
Grb2 SH2
  SH2 binding enrichment: 0.679
Hck
  phosphorylation enrichment: 0.706
Fer (mouse)
  phosphorylation enrichment: 0.523
EPHB1
  phosphorylation enrichment: 0.54
c-Src
  phosphorylation enrichment: 0.529
FGFR1
  phosphorylation enrichment: 0.611
Fyn
  phosphorylation enrichment: 0.531
EPHB2
  phosphorylation enrichment: 0.559
AncSZ
  phosphorylation enrichment: 1.18
MERTK
  phosphorylation enrichment: 0.58
Fes
  phosphorylation enrichment: 0.939
Jak2
  phosphorylation enrichment: 1.15
FGFR3
  phosphorylation enrichment: 0.755
c-Abl (mouse)
  phosphorylation enrichment: 0.786

## REVKAYGAGLL [TH_Y419_G414R]
c-Src SH2
  SH2 binding enrichment: 0.618
SHP2-C SH2
  SH2 binding enrichment: 0.776
Grb2 SH2
  SH2 binding enrichment: 0.786
Hck
  phosphorylation enrichment: 0.419
Fer (mouse)
  phosphorylation enrichment: 0.853
EPHB1
  phosphorylation enrichment: 0.487
c-Src
  phosphorylation enrichment: 0.363
FGFR1
  phosphorylation enrichment: 0.411
Fyn
  phosphorylation enrichment: 0.532
EPHB2
  phosphorylation enrichment: 0.405
AncSZ
  phosphorylation enrichment: 0.559
MERTK
  phosphorylation enrichment: 0.411
Fes
  phosphorylation enrichment: 0.649
Jak2
  phosphorylation enrichment: 0.53
FGFR3
  phosphorylation enrichment: 0.817
c-Abl (mouse)
  phosphorylation enrichment: 0.55

## REVPVYIGEDS [SYNM_Y460]
c-Src SH2
  SH2 binding enrichment: 0.691
SHP2-C SH2
  SH2 binding enrichment: 0.625
Grb2 SH2
  SH2 binding enrichment: 0.707
Hck
  phosphorylation enrichment: 0.659
Fer (mouse)
  phosphorylation enrichment: 0.499
EPHB1
  phosphorylation enrichment: 0.391
c-Src
  phosphorylation enrichment: 0.481
FGFR1
  phosphorylation enrichment: 0.661
Fyn
  phosphorylation enrichment: 0.402
EPHB2
  phosphorylation enrichment: 0.547
AncSZ
  phosphorylation enrichment: 1.05
MERTK
  phosphorylation enrichment: 0.426
Fes
  phosphorylation enrichment: 1.36
Jak2
  phosphorylation enrichment: 1.02
FGFR3
  phosphorylation enrichment: 0.909
c-Abl (mouse)
  phosphorylation enrichment: 0.595

## RFLRGYRQDAF [HLA-A_Y137_YF]
c-Src SH2
  SH2 binding enrichment: 0.559
SHP2-C SH2
  SH2 binding enrichment: 0.888
Grb2 SH2
  SH2 binding enrichment: 1
Hck
  phosphorylation enrichment: 0.802
Fer (mouse)
  phosphorylation enrichment: 0.658
EPHB1
  phosphorylation enrichment: 0.742
c-Src
  phosphorylation enrichment: 0.413
FGFR1
  phosphorylation enrichment: 0.569
Fyn
  phosphorylation enrichment: 0.489
EPHB2
  phosphorylation enrichment: 0.47
AncSZ
  phosphorylation enrichment: 0.644
MERTK
  phosphorylation enrichment: 0.799
Fes
  phosphorylation enrichment: 1.01
Jak2
  phosphorylation enrichment: 0.498
FGFR3
  phosphorylation enrichment: 0.677
c-Abl (mouse)
  phosphorylation enrichment: 0.708

## RFVTRHIFNRE [HLA-DQB1_Y62_Y62H_YF]
c-Src SH2
  SH2 binding enrichment: 0.293
SHP2-C SH2
  SH2 binding enrichment: 0.721
Grb2 SH2
  SH2 binding enrichment: 0.443
Hck
  phosphorylation enrichment: 0.431
Fer (mouse)
  phosphorylation enrichment: 0.43
EPHB1
  phosphorylation enrichment: 0.482
c-Src
  phosphorylation enrichment: 0.62
FGFR1
  phosphorylation enrichment: 0.584
Fyn
  phosphorylation enrichment: 0.651
EPHB2
  phosphorylation enrichment: 0.314
AncSZ
  phosphorylation enrichment: 0.843
MERTK
  phosphorylation enrichment: 0.583
Fes
  phosphorylation enrichment: 1.12
Jak2
  phosphorylation enrichment: 0.766
FGFR3
  phosphorylation enrichment: 0.658
c-Abl (mouse)
  phosphorylation enrichment: 0.719
